The labels stand for the following.
B1: Sliding clamp, P04525 (parent)
chain: MKLSKDTTALLKNFATINSGIMLKSGQFIMTRAVNGTTYAEANISDVIDFDVAIYDLNGFLGILSLVNDDAEISQSEDGNIKIADARSTIFWPAADPSTVVAPNKPIPFPVASAVTEIKAEDLQQLLRVSRGLQIDTIAITVKEGKIVINGFNKVEDSALTRVKYSLTLGDYDGENTFNFIINMANMKMQPGNYKLLLWAKGKQGAAKFEGEHANYVVALEADSTHDF

The source of these data is FireProtDB (doi:10.1021/acs.biochem.5b01204).

In one data set the parent is B1. Conditions: Enterobacteria phage T4; pH 7.4; 25 °C; Urea; CD; Sodium Phosphate Buffer; transition: 3; structure 1CZD; whole UniProt chain shown.
As to W199F, the “denaturant midpoint (higher = more stable)” value turned out to be 1.9 M.

The same data set, now with this note: Enterobacteria phage T4; pH 7.4; 25 °C; Urea; CD; Sodium Phosphate Buffer; structure 1CZD; whole UniProt chain shown.
On to W92F, for which the “denaturant midpoint (higher = more stable)” value amounted to 2 M.
